Experimental data from paper PMC6105031, “The crystal structure of KSHV ORF57 reveals dimeric active sites important for protein stability and function” (PLoS Pathogens, 2018).

B1: FLAG-tagged full-length ORF57 [Kaposi's sarcoma-associated herpesvirus (KSHV, HHV8)] / itself (parent complex)
chain: MVQAMIDMDIMKGILEDSVSSSEFDESRDDETDAPTLEDEQLSEPAEPPADERIRGTQSAQGIPPPLGRIPKKSQGRSQLRSEIQFCSPLSRPRSPSPVNRYGKKIKFGTAGQNTRPPPEKRPRRRPRDRLQYGRTTRGGQCRAAPKRATRRPQVNCQRQDDDVRQGVSDAVKKLRLPASMIIDGESPRFDDSIIPRHHGACFNVFIPAPPSHVPEVFTDRDITALIRAGGKDDELINKKISAKKIDHLHRQMLSFVTSRHNQAYWVSCRRETAAAGGLQTLGAFVEEQMTWAQTVVRHGGWFDEKDIDIILDTAIFVCNAFVTRFRLLHLSCVFDKQSELALIKQVAYLVAMGNRLVEACNLLGEVKLNFRGGLLLAFVLTIPGMQSRRSISARGQELFRTLLEYYRPGDVMGLLNVIVMEHHSLCRNSECAAATRAAMGSAKFNKGLFFYPLS

Variants of: B1
Experiment: in vitro crosslinking assay (DSS) with anti-FLAG Western blot; HEK293 cells, 0.5 μg plasmid for WT and 2 μg for mutant, DSS 50 μM for 30 min; lanes 14 (WT) and 16 (mutant); parent: 0.15

| Variant | screen value |
| --- | --- |
| MVQAMIDMDIMKGILEDSVSSSEFDESRDDETDAPTLEDEQLSEPAEPPADERIRGTQSAQGIPPPLGRIPKKSQGRSQLRSEIQFCSPLSRPRSPSPVNRYGKKIKFGTAGQNTRPPPEKRPRRRPRDRLQYGRTTRGGQCRAAPKRATRRPQVNCQRQDDDVRQGVSDAVKKLRLPASMIIDGESPRFDDSIIPRHHGACFNVFIPAPPSHVPEVFTDRDITALIRAGGKDDELINKKISAKKIDHLHRQMLSFVTSRHNQAYWVSCAAETAAAGGLQTLGAFVEEQMTWAQTVVRHGGWFDEKDIDIILDTAIFVCNAFVTRFRLLHLSCVFDKQSELALIKQVAYLVAMGNRLVEACNLLGEVKLNFRGGLLLAFVLTIPGMQSRRSISARGQELFRTLLEYYRPGDVMGLLNVIVMEHHSLCRNSECAAATRAAMGSAKFNKGLFFYPLS [chain 1 R270A, chain 1 R271A] | 0.07 |
